# Assay results as given in FireProtDB (doi:10.1073/pnas.88.5.1706).
# B1: DNA-Binding protein, P69542 (parent)
# chain: MIKVEIKPSQAQFTTRSGVSRQGKPYSLNEQLCYVDLGNEYPVLVKITLDEGQPAYAPGLYTVHLSSFKVGQFGSLMIDRLRLVPAK
# Variants of: B1
# Conditions: Enterobacteria phage fd; pH 7; 25 °C; GdnHCl; CD; MOPS 50 mM; NaCl 100 mM; reversible: yes; structure 1VQB; whole UniProt chain shown
Variant,ddG of mutation (higher = less stable),denaturant m value,denaturant midpoint (higher = more stable),unfolding free energy
V35C I47C,7.1 kcal/mol,4.9 kcal/mol/M,0.99 M,1.9 kcal/mol
V35M I47M,3.5 kcal/mol,3.8 kcal/mol/M,1.65 M,5.5 kcal/mol
V35M I47L,1.6 kcal/mol,4.1 kcal/mol/M,2.14 M,7.4 kcal/mol
V35M I47F,2.3 kcal/mol,4.7 kcal/mol/M,1.99 M,6.8 kcal/mol
V35I I47F,2 kcal/mol,4.4 kcal/mol/M,2.05 M,7 kcal/mol
V35I I47L,1.1 kcal/mol,4.2 kcal/mol/M,2.27 M,7.9 kcal/mol
V35I I47M,2.8 kcal/mol,4.2 kcal/mol/M,1.87 M,6.3 kcal/mol
V35I I47V,3 kcal/mol,4.1 kcal/mol/M,1.8 M,6 kcal/mol
V35F I47L,4.1 kcal/mol,3.9 kcal/mol/M,1.51 M,4.9 kcal/mol
I47M,2.1 kcal/mol,3.9 kcal/mol/M,2.02 M,6.9 kcal/mol
I47A,7 kcal/mol,4.3 kcal/mol/M,0.87 M,2 kcal/mol
I47L,0.6 kcal/mol,3.7 kcal/mol/M,2.43 M,8.4 kcal/mol
I47V,2.5 kcal/mol,3.9 kcal/mol/M,1.91 M,6.5 kcal/mol
V35A I47M,4.4 kcal/mol,4.2 kcal/mol/M,1.47 M,4.6 kcal/mol
V35A I47L,2.9 kcal/mol,4.5 kcal/mol/M,1.85 M,6.1 kcal/mol
V35A I47V,4.4 kcal/mol,4.5 kcal/mol/M,1.5 M,4.6 kcal/mol
V35A,2.2 kcal/mol,3.9 kcal/mol/M,2.01 M,6.9 kcal/mol
V35F,3.1 kcal/mol,3.8 kcal/mol/M,1.76 M,5.9 kcal/mol
V35L,2.7 kcal/mol,4.5 kcal/mol/M,1.9 M,6.4 kcal/mol
V35C,1.4 kcal/mol,4.1 kcal/mol/M,2.21 M,7.7 kcal/mol
V35M,1 kcal/mol,3.6 kcal/mol/M,2.33 M,8 kcal/mol
V35I,0.6 kcal/mol,3.6 kcal/mol/M,2.44 M,8.4 kcal/mol
V35L I47M,5.3 kcal/mol,5 kcal/mol/M,1.37 M,3.7 kcal/mol
V35L I47F,3.94 kcal/mol,4.3 kcal/mol/M,1.6 M,5.1 kcal/mol
V35L I47V,5 kcal/mol,4.2 kcal/mol/M,1.32 M,4 kcal/mol
V35L I47L,3.5 kcal/mol,4.3 kcal/mol/M,1.7 M,5.5 kcal/mol
